Reference: article PMC12552968, “The RING-finger domain of Arabidopsis RMR functions as an E3 ligase essential for post-Golgi trafficking” (The Journal of Biological Chemistry, 2025)

Target: T1, Arabidopsis E2 ubiquitin-conjugating enzyme AtUbc30 (Arabidopsis, UniProt Q9FKT3 1-148)
T1 construct: AtUbc30, Arabidopsis E2 ubiquitin-conjugating enzyme, At5g56150; source: E. coli SoluBL21, purified (GSTrap Sepharose, PreScission cleavage, gel filtration)
Assay: pull-down; AtUbc30 (50 to 60 μM) with equimolar GST, wildtype or I234Y GST-AtRMR1-RING in the presence of GSTrap Sepharose; 30 mM Tris pH 7.5, 150 mM NaCl, 2 mM DTT; 4 h at 4 °C; eluted with 20 mM reduced glutathione; 15% SDS-PAGE, Coomassie blue
Conditions: both partners purified

T1 sequence (Q9FKT3 whole entry): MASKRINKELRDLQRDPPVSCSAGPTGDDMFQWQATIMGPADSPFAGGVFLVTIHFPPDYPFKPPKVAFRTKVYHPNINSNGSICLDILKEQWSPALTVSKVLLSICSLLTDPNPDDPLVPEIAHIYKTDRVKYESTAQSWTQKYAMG

B1: GST-tagged RING-H2 domain of Arabidopsis RMR isoform-1 (GST-AtRMR1-RING), wildtype (domain or fragment, UniProt Q9M622 206-283, looked up)
chain: RLDAKLVHTLPCFTFTDSAHHKAGETCAICLEDYRFGESLRLLPCQHAFHLNCIDSWLTKWGTSCPVCKHDIRTETMS
notes: AtRMR1 (receptor-homology-transmembrane-RING-H2 protein 1), Arabidopsis, At5g66160, RING-H2 domain, residues 206-283; The methods tell only the purification of the form with the GST tag cleaved; also called E3; source: E. coli SoluBL21 (pGEX-6p-1), recombinant
binding result: binds
